Laboratory results from patent US20220332804A1 (CSL INNOVATION, published 2022).

Experiments:
human FcRn/β2m [1] = biological target: T1, human FcRn/β2m (human, UniProt P55899 24-297; P61769 21-119); experiment: SPR, antibody immobilised, FcRn/β2m analyte, pH 6.0
T1 construct: Soluble FcRn/β2m injected as analyte over immobilised antibody; also called neonatal Fc receptor
Procedure: (§1) Anti-C2 mAbs (1 μg/mL at pH 5) were immobilized on a carboxylmethyldextran (CM5) sensorchip surface using standard EDC/NHS chemistry. Human and Cyno FcRn/β2m (40 μM) were prepared in running buffer (10 mM HEPES, 150 mM NaCl, 10 mM MES adjusted to either pH 6 or pH 7.3) and injected on the immobilized anti-C2 surface at concentrations ranging from 0.078 to 40 μM, prepared in two-fold dilutions in running buffer. Association and dissociation phases were monitored for 180 and 600 seconds, respectively. […] Double referenced sensorgrams were fitted to either a 1:1 kinetic model (pH 6), including a term for mass transport limitation or to a 1:1 steady state model (pH 7.3) where responses at the end of the association phase were plotted against respective concentrations.
(§2) Binding to both human and cynomolgus monkey FcRn was tested using the SPR methods described above.

human FcRn/β2m [2] = biological target: T1, human FcRn/β2m; experiment: SPR, antibody immobilised, FcRn/β2m analyte, pH 7.3
Procedure: as §1, §2

[3] = biological target: T2, cynomolgus monkey FcRn/β2m (cynomolgus monkey, UniProt Q8SPV9 24-297; Q8SPW0 21-119, limits assumed); experiment: SPR, immobilised antibody, cyno FcRn/b2m analyte, pH 6.0; pH 6.0
T2 construct: injected in solution over immobilised antibody; also called Cyno FcRn/β2m
T2 sequence (Q8SPV9 24-297 limits assumed, chain 1 of 2): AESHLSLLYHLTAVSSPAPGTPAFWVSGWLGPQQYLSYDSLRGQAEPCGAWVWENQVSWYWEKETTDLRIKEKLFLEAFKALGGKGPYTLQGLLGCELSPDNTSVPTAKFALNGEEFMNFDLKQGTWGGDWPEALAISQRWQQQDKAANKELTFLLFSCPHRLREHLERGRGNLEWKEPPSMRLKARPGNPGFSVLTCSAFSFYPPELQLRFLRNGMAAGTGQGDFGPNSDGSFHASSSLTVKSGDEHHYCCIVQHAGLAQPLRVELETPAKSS
T2 sequence (Q8SPW0 21-119 limits assumed, chain 2 of 2): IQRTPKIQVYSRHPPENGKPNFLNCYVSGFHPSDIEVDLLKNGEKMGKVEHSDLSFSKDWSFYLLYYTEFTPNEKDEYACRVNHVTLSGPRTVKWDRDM
Procedure: as §1, §2

human FcRn/β2m [4] = biological target: T1, human FcRn/β2m; experiment: SPR, antibody immobilised, FcRn/β2m analyte, pH 6.0; pH 6.0
Procedure: as §1, §2

[5] = biological target: T3, human complement C2 zymogen (human, UniProt P06681 21-752); experiment: SPR, human C2 zymogen analyte, HBS-EP, pH 7.3, 37 C
T3 construct: also called huC2; human C2
T3 sequence: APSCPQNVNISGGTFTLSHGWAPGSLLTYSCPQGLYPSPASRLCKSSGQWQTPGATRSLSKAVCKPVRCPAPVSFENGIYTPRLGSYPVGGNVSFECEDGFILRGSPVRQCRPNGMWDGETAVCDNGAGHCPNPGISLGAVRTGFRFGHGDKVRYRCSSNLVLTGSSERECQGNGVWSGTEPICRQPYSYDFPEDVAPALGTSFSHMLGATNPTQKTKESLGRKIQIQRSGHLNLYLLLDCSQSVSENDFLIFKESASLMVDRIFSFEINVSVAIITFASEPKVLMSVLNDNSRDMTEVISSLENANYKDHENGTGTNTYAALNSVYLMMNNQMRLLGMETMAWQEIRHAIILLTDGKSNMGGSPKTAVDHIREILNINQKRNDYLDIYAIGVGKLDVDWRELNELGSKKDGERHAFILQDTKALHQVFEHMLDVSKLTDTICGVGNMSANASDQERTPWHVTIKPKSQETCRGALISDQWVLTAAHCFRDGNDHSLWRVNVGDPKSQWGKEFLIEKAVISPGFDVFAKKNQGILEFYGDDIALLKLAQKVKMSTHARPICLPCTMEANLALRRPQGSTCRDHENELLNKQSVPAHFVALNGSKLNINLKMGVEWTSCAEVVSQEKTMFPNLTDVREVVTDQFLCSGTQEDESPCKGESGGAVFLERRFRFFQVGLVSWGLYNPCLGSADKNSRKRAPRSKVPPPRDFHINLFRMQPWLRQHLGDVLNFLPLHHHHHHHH
Procedure: (§3) Surface plasmon resonance (SPR, Biacore) was used for all binding affinity analyses. In brief, goat anti-human IgG was directly immobilised onto the carboxymethyl dextran surface of CM5 sensorchips to approximately 12,000 RU using standard NHS/EDC chemistry at pH 5. The immobilised antibody surface was pre-conditioned with ten injections of polyclonal human IgG (Privigen 60 s) prepared at 1 μg/mL. Ligands (anti-C2 mAbs) were captured at the beginning of each cycle as described below. An adjacent spot or flow cell in which only Polyclonal IgG was capture was used as a reference surface. The goat anti-human IgG Fc antibody surface was regenerate in 100 mM H3PO4, injected for 45 seconds at the end of each cycle. Experiments were performed at 37° C. and the flow rate of each experiment was kept constant at 30 μL/min.
(§4) Purified human C2 zymogen and human C2a were tested at concentrations ranging from 1.9 to 500 nM while human C2b was tested at concentrations ranging from 1.9 to 1000 nM. All experiments were performed in HBS-EP buffer supplemented with 0.1% BSA at 37° C. and pH 7.3. Each antibody was tested against human C2 zymogen and human C2a in duplicate and against C2b in quadruplicate. The flow rate was set to 30 μL/min. Each analyte concentration was tested in duplicate.

[6] = biological target: T4, human C2a (activated human C2) (human, UniProt P06681 244-752); experiment: SPR, HBS-EP, pH 7.3, 37 C
T4 construct: the whole entry is named here; also called huC2a
T4 sequence: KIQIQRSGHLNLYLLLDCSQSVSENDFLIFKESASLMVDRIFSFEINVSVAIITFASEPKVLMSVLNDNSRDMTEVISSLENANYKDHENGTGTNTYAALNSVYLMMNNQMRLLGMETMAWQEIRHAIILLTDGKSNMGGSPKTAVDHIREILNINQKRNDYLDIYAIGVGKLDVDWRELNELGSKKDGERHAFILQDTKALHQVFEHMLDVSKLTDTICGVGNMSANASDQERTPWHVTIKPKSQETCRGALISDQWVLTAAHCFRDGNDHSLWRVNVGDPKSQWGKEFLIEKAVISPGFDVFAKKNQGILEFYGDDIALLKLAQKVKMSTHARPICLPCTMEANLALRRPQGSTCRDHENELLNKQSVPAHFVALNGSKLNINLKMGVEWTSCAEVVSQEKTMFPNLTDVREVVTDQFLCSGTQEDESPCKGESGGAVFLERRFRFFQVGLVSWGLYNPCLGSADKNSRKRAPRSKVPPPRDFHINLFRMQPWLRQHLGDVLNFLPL
Procedure: as §3, §4

human C2b = biological target: T5, human C2b (human, UniProt P06681 21-243); experiment: SPR, HBS-EP, pH 7.3, 37 C
T5 construct: the whole entry is named here
T5 sequence: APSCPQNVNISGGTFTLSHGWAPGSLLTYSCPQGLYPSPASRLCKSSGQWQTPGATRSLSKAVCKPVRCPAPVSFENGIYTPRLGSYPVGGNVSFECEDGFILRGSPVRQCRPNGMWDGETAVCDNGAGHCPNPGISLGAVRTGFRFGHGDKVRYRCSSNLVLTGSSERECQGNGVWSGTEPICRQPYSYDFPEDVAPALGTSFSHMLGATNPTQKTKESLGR
Procedure: as §3, §4

T1 sequence (P55899 24-297 limits assumed, chain 1 of 2): as the sequence (Q8SPV9 24-297 limits assumed, chain 1 of 2) above, with D39N, Q44E, S99G, G189S, N190S, M217L, T269S counted along it
T1 sequence (P61769 21-119 limits assumed, chain 2 of 2): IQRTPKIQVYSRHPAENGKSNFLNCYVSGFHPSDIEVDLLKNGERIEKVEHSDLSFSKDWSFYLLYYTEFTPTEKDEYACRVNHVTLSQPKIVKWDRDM

Binder	Kd (human FcRn/β2m [1])	Kd (human FcRn/β2m [2])	Kd [5]	binding result [6]	binding result (human C2b)	also measured
RF16-226 M252Y, N286E, N434Y (antibody, human IgG4 S228P, lambda) heavy: EVQLVQSGAEVKKPGESLKISCKGSGYSFTSYWIGWVRQMPGKGLEWMGIIYPGDSDTRYSPSFQGQVTISADKSISTAYLQWSSLKASDTAMYYCARRFSYSSGWDMWGQGTLVTVSSASTKGPSVFPLAPCSRSTSESTAALGCLVKDYFPEPVTVSWNSGALTSGVHTFPAVLQSSGLYSLSSVVTVPSSSLGTKTYTCNVDHKPSNTKVDKRVESKYGPPCPPCPAPEFLGGPSVFLFPPKPKDTLYISRTPEVTCVVVDVSQEDPEVQFNWYVDGVEVHEAKTKPREEQFNSTYRVVSVLTVLHQDWLNGKEYKCKVSNKGLPSSIEKTISKAKGQPREPQVYTLPPSQEEMTKNQVSLTCLVKGFYPSDIAVEWESNGQPENNYKTTPPVLDSDGSFFLYSRLTVDKSRWQEGNVFSCSVMHEALHYHYTQKSLSLSLGK light: SYELTQPPSVSVSPGQTARITCSGDALTSKYVAWYQQKSGLAPLLVIYEDTRRPSGIPAKFSGSSSGSVATLTISGAHGDDEADYYCYSTDASGHQRVFGGGTKLTVLSQPKAAPSVTLFPPSSEELQANKATLVCLISDFYPGAVTVAWKADGSPVKAGVETTKPSKQSNNKYAASSYLSLTPEQWKSHRSYSCQVTHEGSTVEKTVAPTECS	22 nM	3300 nM	–	–	–	–
RF16-226 Fc mutant M428L, N434A (antibody, human IgG4 S228P, lambda) heavy: not shown light: SYELTQPPSVSVSPGQTARITCSGDALTSKYVAWYQQKSGLAPLLVIYEDTRRPSGIPAKFSGSSSGSVATLTISGAHGDDEADYYCYSTDASGHQRVFGGGTKLTVLSQPKAAPSVTLFPPSSEELQANKATLVCLISDFYPGAVTVAWKADGSPVKAGVETTKPSKQSNNKYAASSYLSLTPEQWKSHRSYSCQVTHEGSTVEKTVAPTECS	–	–	–	–	–	Kd [3]: 420 nM
RF16-226 M252Y, V308P, N434Y (antibody, human IgG4 S228P, lambda) heavy: EVQLVQSGAEVKKPGESLKISCKGSGYSFTSYWIGWVRQMPGKGLEWMGIIYPGDSDTRYSPSFQGQVTISADKSISTAYLQWSSLKASDTAMYYCARRFSYSSGWDMWGQGTLVTVSSASTKGPSVFPLAPCSRSTSESTAALGCLVKDYFPEPVTVSWNSGALTSGVHTFPAVLQSSGLYSLSSVVTVPSSSLGTKTYTCNVDHKPSNTKVDKRVESKYGPPCPPCPAPEFLGGPSVFLFPPKPKDTLYISRTPEVTCVVVDVSQEDPEVQFNWYVDGVEVHNAKTKPREEQFNSTYRVVSVLTPLHQDWLNGKEYKCKVSNKGLPSSIEKTISKAKGQPREPQVYTLPPSQEEMTKNQVSLTCLVKGFYPSDIAVEWESNGQPENNYKTTPPVLDSDGSFFLYSRLTVDKSRWQEGNVFSCSVMHEALHYHYTQKSLSLSLGK light: SYELTQPPSVSVSPGQTARITCSGDALTSKYVAWYQQKSGLAPLLVIYEDTRRPSGIPAKFSGSSSGSVATLTISGAHGDDEADYYCYSTDASGHQRVFGGGTKLTVLSQPKAAPSVTLFPPSSEELQANKATLVCLISDFYPGAVTVAWKADGSPVKAGVETTKPSKQSNNKYAASSYLSLTPEQWKSHRSYSCQVTHEGSTVEKTVAPTECS	10 nM	1200 nM	–	–	–	–
RF16-226 M428L, N434A (antibody, human IgG4 S228P, lambda) heavy: not shown light: SYELTQPPSVSVSPGQTARITCSGDALTSKYVAWYQQKSGLAPLLVIYEDTRRPSGIPAKFSGSSSGSVATLTISGAHGDDEADYYCYSTDASGHQRVFGGGTKLTVLSQPKAAPSVTLFPPSSEELQANKATLVCLISDFYPGAVTVAWKADGSPVKAGVETTKPSKQSNNKYAASSYLSLTPEQWKSHRSYSCQVTHEGSTVEKTVAPTECS	–	–	–	–	–	Kd (human FcRn/β2m [4]): 640 nM
RF16-226G (antibody, human IgG4 S228P, lambda) heavy: not shown light: SYELTQPPSVSVSPGQTARITCSGDALTSKYVAWYQQKSGQAPVLVIYEDTRRPSGIPERFSGSSSGTMATLTISGAQVEDEADYYCYSTDASGHQRVFGGGTKLTVLGQPKAAPSVTLFPPSSEELQANKATLVCLISDFYPGAVTVAWKADSSPVKAGVETTTPSKQSNNKYAASSYLSLTPEQWKSHRSYSCQVTHEGSTVEKTVAPTECS	–	–	7 nM	no binding (tested: C2a tested up to 500 nM)	no binding (tested: C2b tested up to 1000 nM)	–
RF16-226G YPY (RF16-226G with the M252Y, V308P and N434Y Fc mutations) (antibody, human IgG4 S228P, lambda) heavy: EVQLVQSGAEVKKPGESLKISCKGSGYSFTSYWIGWVRQMPGKGLEWMGIIYPGDSDTRYSPSFQGQVTISADKSISTAYLQWSSLKASDTAMYYCARRFSYSSGWDMWGQGTLVTVSSASTKGPSVFPLAPCSRSTSESTAALGCLVKDYFPEPVTVSWNSGALTSGVHTFPAVLQSSGLYSLSSVVTVPSSSLGTKTYTCNVDHKPSNTKVDKRVESKYGPPCPPCPAPEFLGGPSVFLFPPKPKDTLYISRTPEVTCVVVDVSQEDPEVQFNWYVDGVEVHNAKTKPREEQFNSTYRVVSVLTPLHQDWLNGKEYKCKVSNKGLPSSIEKTISKAKGQPREPQVYTLPPSQEEMTKNQVSLTCLVKGFYPSDIAVEWESNGQPENNYKTTPPVLDSDGSFFLYSRLTVDKSRWQEGNVFSCSVMHEALHYHYTQKSLSLSLGK light: SYELTQPPSVSVSPGQTARITCSGDALTSKYVAWYQQKSGQAPVLVIYEDTRRPSGIPERFSGSSSGTMATLTISGAQVEDEADYYCYSTDASGHQRVFGGGTKLTVLGQPKAAPSVTLFPPSSEELQANKATLVCLISDFYPGAVTVAWKADSSPVKAGVETTTPSKQSNNKYAASSYLSLTPEQWKSHRSYSCQVTHEGSTVEKTVAPTECS	–	–	8 nM	no binding (tested: C2a tested up to 500 nM)	no binding (tested: C2b tested up to 1000 nM)	–
